Numbered stars: 1 amine (or outer) side, 2 acyl side, 3 side chain; on linkers, the order of the positions; unused ones are H or OH. Square brackets hold non-standard residues; d marks the D form. Caf = 4′-carboxyphenylazophenylalanine, O=C([C@H](Cc1ccc(/N=N/c2ccc(C(=O)[*:3])cc2)cc1)N[*:1])[*:2]
Biological target: mouse anti-6×His antibody alkaline phosphatase (AP) conjugate (Arigo Biolaboratories)
Assay: ELISA, curve fit; ProtL^Caf337-ABD in a dilution series on HSA-coated plate, Ig-AP conjugate at 1:1000; ground state (trans-Caf)

Kd: 140 nM
B1: ProtL^Caf337-ABD (designed binder)
chain: MKEEVTIKVNLI[Caf]ADGKTQTAEFKGTFEEATAKAYANADLSAKENGEYTADLEDGGNTINIKFAGGAVDANSLAEAKVLANRELDKYGVSDYYKNLINNAKTVEGVKALIDEILAALP
